Consider four molecules from patent US20260209750, “SYSTEM AND METHOD FOR […] RNA APTAMER” (CRISmers Biotechnologies (Shenzhen) Co., Ltd., published 2026).

By Kd is commonly meant the equilibrium constant for the complex coming apart.

The target of data set [1] is NSP7-8 complex (SARS-CoV-2, UniProt P0DTD1;P0DTD1 P0DTD1:3860-3942,P0DTD1:3943-4140). Put plainly: ELONA. Particulars: label: biotin.
Data set [2] concerns the target PD-1 extracellular domain, recombinant (UniProt Q15116 Q15116:25-170). Put plainly: ELONA.
The target of data set [3] is T1, SARS-CoV-2 spike RBD (wild type), recombinant (SARS-CoV-2, UniProt P0DTC2 P0DTC2:319-541). Put plainly: EMSA. (In general: In EMSA bound probe runs differently from free probe, usually more slowly.)
Data set [4] has as its target T1, SARS-CoV-2 spike RBD (wild type), …. Put plainly: ELONA.

Sequence of PD-1 extracellular domain, recombinant (Q15116 25-170, one chain of several): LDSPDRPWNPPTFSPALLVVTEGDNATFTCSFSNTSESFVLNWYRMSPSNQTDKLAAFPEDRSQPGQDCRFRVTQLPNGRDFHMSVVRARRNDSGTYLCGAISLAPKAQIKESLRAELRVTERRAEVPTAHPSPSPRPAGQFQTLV

As to ACUUGGCCACGUCGACUGAAAUCCUCUUCCUGCAGGGCCAAGUG (ssRNA) [#2-1-18 full], the binding result in data set [1] and in data set [2] was “no binding” throughout. Consider ACUUGGCCACGUCGACUGAAAUCCUCUUCCUGCAGGGCCAAGUG (ssRNA, 2'-F on pyrimidines, 2'-OMe on purines) [#2-1-18-2'-F-O], for which, in data set [3], the binding result is given as “binds”. As to ACUUGGCCAAUUACCGUAGUUUUUGUAGUCUGCAGGGCCAAGUG (ssRNA) [#5-2-15 full], the binding result in data set [1] and in data set [2] was “no binding” each time. The Kd in data set [4] amounted to 22.6 nM.

For ACUUGGCCAAUUACCGUAGUUUUUGUAGUCUGCAGGGCCAAGUG (ssRNA, 2'-F on pyrimidines, 2'-OMe on purines) [#5-2-15-2'-F-O], the binding result in data set [3] is “binds”.
